Results from the supplement of paper PMC7877785.
± gives the uncertainty stated by the source.

Assay: self-splicing fitness, log relative to wild type (ln ratio); higher = more splicing; Tetrahymena group I intron in knt gene, E. coli kanamycin selection, DiMSum; sequences stand for … in CUCUCU…GGAGGGAAAAGUUAUCAGGCAUGCACCUGGUAGCUAGUCUUUAAACCAAUAGAUUGCAUCGGUUUAAAAGGCAAGACCGUCAAAUUGCGGGAAAGGGGUCAACAGCCGUUCAGUACCAAGUCUCAGGGGAAACUUUGAGAUGGCCUUGCAAAGGGUAUGGUAAUAAGCUGACGGACAUGGUCCUAACCACGCAGCCAAGUCCUAAGUCAACAGAUCUUCUGUUGAUAUGGAUGCAGUUCACAGACUAAAUGUCGGUCGGGGAAGAUGUAUUCUUCUCAUAAGAUAUAGUCGGACCUCUCCUUAAUGGGAGCUAGCGGAUGAAGUGAUGCAACACUGGAGCCGCUGGGAACUAAUUUGUAUGCGAAAGUAUAUUGAUUAGUUUUGGAGUACUCGUGGUCG
Method in brief: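 A randomised library covering all eight P1ex-region intron nucleotides was built with the intron in the knt kanamycin-resistance gene on pET-22b(+) and held in E. coli BL21(DE3). Cells were grown overnight at 37°C or 30°C on LB agar, with or without 25 μg/mL kanamycin, plus 100 μg/mL carbenicillin, 50 μM IPTG and 0.2% rhamnose, and pooled colonies were amplicon-sequenced on an Illumina HiSeq 2500. DiMSum fitness is the error-weighted combination of wild-type-normalised replicate fold changes, kanamycin versus none.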

| Sequence | self-splicing fitness (ln) (30 °C) | self-splicing fitness (ln) (37 °C) |
| --- | --- | --- |
| CCGUAGCAAUAUUACGAAAG | -1.37 ± 0.088 | 0.537 ± 0.1 |
| CCGUAGCAAUAUUACGAAUA | -2.99 ± 0.28 | – |
| CCGUAGCAAUAUUACGCAUG | -0.123 ± 0.14 | -1.09 ± 0.13 |
| CCGUAGCAAUAUUACGCCCG | -0.871 ± 0.15 | -0.0634 ± 0.21 |
| CCGUAGCAAUAUUACGCGGG | -4.02 ± 0.33 | -3.61 ± 0.39 |
| CCGUAGCAAUAUUACGCGUG | -2.72 ± 0.15 | -1.22 ± 0.12 |
| CCGUAGCAAUAUUACGCUAA | -3.32 ± 0.35 | -1.35 ± 0.36 |
| CCGUAGCAAUAUUACGGCCA | – | -2.19 ± 0.35 |
| CCGUAGCAAUAUUACGGGCG | -2.81 ± 0.17 | -1.34 ± 0.14 |
| CCGUAGCAAUAUUACGGGGG | -4.09 ± 0.24 | -3.23 ± 0.26 |
| CCGUAGCAAUAUUACGGGUU | -3.9 ± 0.17 | -1.57 ± 0.16 |
| CCGUAGCAAUAUUACGUAGU | -3.13 ± 0.19 | -3.05 ± 0.33 |
| CCGUAGCAAUAUUACGUCCU | -3 ± 0.24 | -2.62 ± 0.3 |
| CCGUAGCAAUAUUACGUUAU | -2.06 ± 0.12 | -2.35 ± 0.23 |
| CCGUAGCAAUAUUACGUUCC | -3.11 ± 0.47 | – |
| CCGUAGCAAUAUUACGUUUC | -3.05 ± 0.16 | -3.47 ± 0.29 |
| CCUAAGCAAUAUUACGAACG | -1.68 ± 0.13 | -0.478 ± 0.14 |
| CCUAAGCAAUAUUACGACCU | -3.17 ± 0.35 | -2.34 ± 0.31 |
| CCUAAGCAAUAUUACGAGCU | -2.2 ± 0.33 | -1.93 ± 0.27 |
| CCUAAGCAAUAUUACGAUGG | -2.4 ± 0.16 | -2.09 ± 0.17 |
| CCUAAGCAAUAUUACGCCGA | -0.993 ± 0.49 | -1.98 ± 0.37 |
| CCUAAGCAAUAUUACGCGCU | -2.38 ± 0.22 | -2.75 ± 0.3 |
| CCUAAGCAAUAUUACGCUCA | -3.32 ± 0.27 | -3.18 ± 0.4 |
| CCUAAGCAAUAUUACGGACU | -3.46 ± 0.35 | -2.29 ± 0.36 |
| CCUAAGCAAUAUUACGGCCC | -2.37 ± 0.29 | – |

| Sequence | self-splicing fitness (ln) (30 °C) | self-splicing fitness (ln) (37 °C) |
| --- | --- | --- |
| CCUAAGCAAUAUUACGGGAG | -4.51 ± 0.24 | -2.93 ± 0.21 |
| CCUAAGCAAUAUUACGGGGC | -2.45 ± 0.2 | -2.61 ± 0.22 |
| CCUAAGCAAUAUUACGGUAC | -2.81 ± 0.22 | -2.17 ± 0.34 |
| CCUAAGCAAUAUUACGUAAU | -2.38 ± 0.18 | -0.984 ± 0.29 |
| CCUAAGCAAUAUUACGUACC | -4.63 ± 0.46 | -2.75 ± 0.31 |
| CCUAAGCAAUAUUACGUACG | -1.94 ± 0.13 | -0.851 ± 0.13 |
| CCUAAGCAAUAUUACGUACU | -3.76 ± 0.43 | -3.01 ± 0.29 |
| CCUAAGCAAUAUUACGUAUU | -4.79 ± 0.39 | -3.07 ± 0.2 |
| CCUAAGCAAUAUUACGUCAU | -4.09 ± 0.22 | -2.83 ± 0.22 |
| CCUAAGCAAUAUUACGUCGG | -2.3 ± 0.29 | -1.51 ± 0.24 |
| CCUAAGCAAUAUUACGUCGU | -3.14 ± 0.39 | -2.08 ± 0.19 |
| CCUAAGCAAUAUUACGUCUC | -3.01 ± 0.11 | -3.11 ± 0.19 |
| CCUAAGCAAUAUUACGUCUG | -2.15 ± 0.2 | -2 ± 0.24 |
| CCUAAGCAAUAUUACGUGAG | -1.2 ± 0.057 | -0.711 ± 0.076 |
| CCUAAGCAAUAUUACGUUAU | -3.35 ± 0.17 | -2.85 ± 0.24 |
| CCUAAGCAAUAUUACGUUGC | -3.6 ± 0.24 | -3.42 ± 0.34 |
| CCUAAGCAAUAUUACGUUUC | -2.52 ± 0.2 | -2.97 ± 0.27 |
| CCUCAGCAAUAUUACGACGA | -4.04 ± 0.33 | -2.86 ± 0.3 |
| CCUCAGCAAUAUUACGAGUA | -3.06 ± 0.21 | -2.38 ± 0.21 |
| CCUCAGCAAUAUUACGAUCC | -2.43 ± 0.44 | – |
| CCUCAGCAAUAUUACGAUCU | -3.75 ± 0.27 | -2.79 ± 0.23 |
| CCUCAGCAAUAUUACGCCAA | -2.26 ± 0.23 | – |
| CCUCAGCAAUAUUACGCCGA | -3.12 ± 0.24 | -3.48 ± 0.27 |
| CCUCAGCAAUAUUACGCUUA | -4.1 ± 0.3 | -2.11 ± 0.16 |
| CCUCAGCAAUAUUACGCUUC | -3.45 ± 0.39 | -3.01 ± 0.33 |

| Sequence | self-splicing fitness (ln) (30 °C) | self-splicing fitness (ln) (37 °C) |
| --- | --- | --- |
| CCUCAGCAAUAUUACGCUUU | -3.07 ± 0.14 | -2.79 ± 0.21 |
| CCUCAGCAAUAUUACGGAGU | -2.26 ± 0.089 | -1.03 ± 0.09 |
| CCUCAGCAAUAUUACGGCAG | -2.91 ± 0.18 | -1.15 ± 0.13 |
| CCUCAGCAAUAUUACGGCGC | -3.57 ± 0.2 | -2.45 ± 0.3 |
| CCUCAGCAAUAUUACGGCGU | -3.42 ± 0.21 | -2.64 ± 0.27 |
| CCUCAGCAAUAUUACGGGAG | -3.4 ± 0.14 | -2.42 ± 0.15 |
| CCUCAGCAAUAUUACGGGAU | -4.21 ± 0.2 | -2.55 ± 0.17 |
| CCUCAGCAAUAUUACGGGCC | -4.31 ± 0.3 | -2.77 ± 0.36 |
| CCUCAGCAAUAUUACGGGCU | -2.67 ± 0.18 | -2.57 ± 0.25 |
| CCUCAGCAAUAUUACGGGUG | -2.04 ± 0.06 | -0.955 ± 0.07 |
| CCUCAGCAAUAUUACGUGGU | -3.93 ± 0.11 | -2.5 ± 0.13 |
| CCUCAGCAAUAUUACGUGUU | -4.12 ± 0.2 | -3.41 ± 0.25 |
| CCUCAGCAAUAUUACGUUAU | -3.74 ± 0.17 | -2.49 ± 0.17 |
| CCUCAGCAAUAUUACGUUCG | -2.69 ± 0.077 | -0.795 ± 0.075 |
| CCUGAGCAAUAUUACGAAUU | -2.96 ± 0.2 | -2.15 ± 0.31 |
| CCUGAGCAAUAUUACGAUGC | -4.16 ± 0.28 | -2.75 ± 0.21 |
| CCUGAGCAAUAUUACGCACC | – | -1.74 ± 0.4 |
| CCUGAGCAAUAUUACGCCCU | – | -1.73 ± 0.33 |
| CCUGAGCAAUAUUACGGAAC | -2.63 ± 0.33 | -1.66 ± 0.31 |
| CCUGAGCAAUAUUACGGACA | -3.69 ± 0.28 | -1.64 ± 0.18 |
| CCUGAGCAAUAUUACGGAGU | -3.26 ± 0.31 | -1.92 ± 0.18 |
| CCUGAGCAAUAUUACGGCAC | – | -2.23 ± 0.26 |
| CCUGAGCAAUAUUACGGCCG | – | -2.21 ± 0.4 |
| CCUGAGCAAUAUUACGGCGG | -2.37 ± 0.13 | -1.92 ± 0.17 |
| CCUGAGCAAUAUUACGGGAA | -2.46 ± 0.27 | -0.571 ± 0.29 |

| Sequence | self-splicing fitness (ln) (30 °C) | self-splicing fitness (ln) (37 °C) |
| --- | --- | --- |
| CCUGAGCAAUAUUACGGGAU | -3.46 ± 0.24 | -1.63 ± 0.2 |
| CCUGAGCAAUAUUACGGGCU | -2.51 ± 0.16 | -2.3 ± 0.32 |
| CCUGAGCAAUAUUACGGUCU | – | -3.78 ± 0.42 |
| CCUGAGCAAUAUUACGGUUG | -3.44 ± 0.13 | -1.3 ± 0.1 |
| CCUGAGCAAUAUUACGUAGU | -3.18 ± 0.14 | -1.21 ± 0.14 |
| CCUGAGCAAUAUUACGUCUA | -2.86 ± 0.31 | -1.69 ± 0.3 |
| CCUGAGCAAUAUUACGUUGA | -3.7 ± 0.26 | -3.27 ± 0.25 |
| CCUUAGCAAUAUUACGAAUA | -2.52 ± 0.27 | -2.21 ± 0.5 |
| CCUUAGCAAUAUUACGAAUU | – | -2.29 ± 0.49 |
| CCUUAGCAAUAUUACGACAA | -3.31 ± 0.2 | -3.02 ± 0.35 |
| CCUUAGCAAUAUUACGACAC | -2 ± 0.14 | -2.1 ± 0.25 |
| CCUUAGCAAUAUUACGACAG | -1.81 ± 0.11 | -0.864 ± 0.14 |
| CCUUAGCAAUAUUACGACUA | – | -2.23 ± 0.5 |
| CCUUAGCAAUAUUACGACUG | -2.26 ± 0.12 | -0.308 ± 0.096 |
| CCUUAGCAAUAUUACGAUGA | -3 ± 0.43 | -1.71 ± 0.28 |
| CCUUAGCAAUAUUACGCCCG | -1 ± 0.13 | -1.49 ± 0.21 |
| CCUUAGCAAUAUUACGCGAA | -4.02 ± 0.26 | -2.62 ± 0.29 |
| CCUUAGCAAUAUUACGCGAG | -4.2 ± 0.31 | -3.27 ± 0.28 |
| CCUUAGCAAUAUUACGCGCA | -2.45 ± 0.4 | -1.89 ± 0.34 |
| CCUUAGCAAUAUUACGCGCU | -3.13 ± 0.32 | -3.41 ± 0.42 |
| CCUUAGCAAUAUUACGCGGG | -3.22 ± 0.16 | -2.21 ± 0.2 |
| CCUUAGCAAUAUUACGGAAG | -2.61 ± 0.14 | -1.13 ± 0.14 |
| CCUUAGCAAUAUUACGGCUU | -3.99 ± 0.37 | -1.99 ± 0.2 |
| CCUUAGCAAUAUUACGGGGC | -3.39 ± 0.27 | -3.06 ± 0.32 |
